The target of assay [1] is T1, ASH1L PHD finger (Mus musculus, UniProt Q99MY8).
T1 construct: The mASH1L PHD domain (residue 2573–2624); MBP (cleaved yes); made in house; host or cells: Escherichia coli BL21 (DE3)
In words: ITC, ASH1L PHD finger with H3 peptides. The format is binding, mASH1L. The following applies: 25°C, 1×PBS, 100-μM ZnCl2, pH 7.2. A general note: ITC needs no label: the signal is the heat of the interaction.
Procedure: The bacteria were grown in Luria Broth (LB) media, supplemented with 100-μM ZnCl2 (all PHD constructs). All PHD domains were expressed in Escherichia coli BL21 (DE3) cells and induced overnight with 0.5-mM isopropyl-β-D-1-thiogalactopyranoside (IPTG) at 22°C. In addition, the cells were harvested by centrifugation at 4,000 g. The harvested cells with MBP-tagged PHD were resuspended in buffer containing 25-mM Tris, pH 7.2, 1-M NaCl, 20-mM β-mercaptoethanol, 100-μM ZnCl2, and the Complete EDTA-free Protease Inhibitor (Roche, Mannheim, Germany). Following lysis in a microfluidizer (MFIC), cell debris was removed by centrifugation at 12,000 g for 1 h and the supernatant was loaded on a 5-ml MBPTrap HP column (GE Healthcare). The binding protein was eluted with buffer containing 25-mM Tris, pH 7.2, 500-mM NaCl, 20-mM β-mercaptoethanol, 20-mM maltose, and 100-μM ZnCl2. After TEV cleavage, the PHD domain was supplemented with 20-mM DTT and further purified using a Superdex 75 column (GE Healthcare, Uppsala, Sweden) in a final buffer containing 1×PBS, pH 7.2, 100- μM ZnCl2. […] The PHD protein was concentrated with a filter tube (Millipore, Co. Cork, Ireland) and measured by UV absorbance at 280 nm.
ITC assays were carried out on the MicroCal iTC200 System (Malvern) at 25°C while stirring at 750 rpm in the ITC buffer of pH 7.2, consisting of 1×PBS, 100-μM ZnCl2. […] The PHD or tandem Bromo-PHD protein sample of 100 µM was placed in the cell and titrated with 3 mM of a different peptide solution in the ITC buffer using a set of 31 injections of 1.2 μl, following a single initial injection of 0.2 μl. In the ITC measurements of PHD mutant samples, the H3 (1–15) peptides were diluted to the final concentrations of 1.5 mM, titrated with a single initial injection of 0.4 μl and followed with a set of 19 injections of 2 μl. Cumulative enthalpy exchange plots were derived from the raw thermal changes, using one set of a site-fitting model.

The target of assay [2] is T1, ASH1L PHD finger. Kind of assay: 1H,15N HSQC chemical shift perturbation. The following applies: protein-to-peptide molar ratio 1:5; 298 K, 800 MHz, 1×PBS, pH 7.2, 100-μM ZnCl2. The class given is binding, mASH1L. From the text: The mASH1L PHD domain (residue 2573–2624) was subcloned into a modified pMAL-c5X expression vector (New England Biolabs, Ipswich, MA, US), which contains an MBP tag and a TEV cleavage site. The site-directed mutagenesis of D2573A, I2575A, D2584E, E2585A, M2588A, Q2590E, and W2597A in the PHD domain was generated using the PfuTurbo DNA polymerase (Agilent Technologies) and Dpn I restriction enzyme (New England Biolabs). After the MBP tag was cut by TEV, these proteins were used in ITC and NMR experiments. The His-tagged PHD domain was subcloned into a pGEX-4T1 expression vector. The base vector has a GST tag and was engineered to include a TEV cleavage site before a 5′ 6×His sequence. […]
The bacteria were grown in Luria Broth (LB) media, supplemented with 100-μM ZnCl2 (all PHD constructs). […] The size and purity of the purified protein were monitored by SDS-PAGE. The PHD protein was concentrated with a filter tube (Millipore, Co. Cork, Ireland) and measured by UV absorbance at 280 nm.
The ^1H,^15N HSQC spectra of the ^15N-labeled PHD finger were collected at 298 K on a Bruker 800-MHz NMR spectrometer equipped with the z-gradient triple-resonance cryoprobe. The binding was analyzed through monitoring chemical shift perturbations observed in the two-dimensional ^1H,^15N HSQC spectra of PHD finger upon the addition of H3 (aa 1-15) peptides (H3K4me, H3K4me2, H3K4me3). […]

Assay [3] deals with mASH1L PHD domain (residue 2573–2624) E2585A (mouse, UniProt Q99MY8 2573-2624, E2585A). Kind of assay: ITC.
The target in assay [4] is mASH1L PHD domain (residue 2573–2624) W2597A (mouse, UniProt Q99MY8 2573-2624, W2597A). Kind of assay: ITC.
Assay [5] deals with mASH1L PHD domain (residue 2573–2624) Q2590E (mouse, UniProt Q99MY8 2573-2624, Q2590E). In words: ITC.
Assay [6] concerns the target mASH1L PHD domain (residue 2573–2624) D2573A (mouse, UniProt Q99MY8 2573-2624, D2573A). Kind of assay: ITC.
For assay [7], the target named is mASH1L PHD domain (residue 2573–2624) M2588A (mouse, UniProt Q99MY8 2573-2624, M2588A). Kind of assay: ITC.
Assay [8] has as its target mASH1L PHD domain (residue 2573–2624) I2575A (mouse, UniProt Q99MY8 2573-2624, I2575A). Kind of assay: ITC.
In assay [9] the target is T2, mASH1L PHD domain (residue 2573–2624) (mouse, UniProt Q99MY8 2573-2624).
T2 chain: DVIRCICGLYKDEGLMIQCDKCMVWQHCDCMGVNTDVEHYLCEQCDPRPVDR
Kind of assay: ITC.

For assay [10], the target named is T3, mASH1L PHD domain (residue 2573–2624) D2584E (mouse, UniProt Q99MY8 2573-2624, D2584E).
T3 construct: also called Asp2584 to Glu; source: E. coli BL21 (DE3), purified (MBPTrap, TEV cleavage, Superdex 75)
T3 sequence (looked up): T2 chain with D12E
In words: ITC; PHD mutants in the cell; H3 (1–15) peptides at 1.5 mM, 19 injections of 2 μl; 25°C, 1×PBS pH 7.2, 100 μM ZnCl2; one set of sites model. The following applies: both partners purified.

Assay [11] has as its target T4, mASH1L PHD domain (residue 2573–2624) Q2590E (mouse, UniProt Q99MY8 2573-2624, Q2590E).
T4 construct: also called Gln2590 to glutamate; source: E. coli BL21 (DE3), purified (MBPTrap, TEV cleavage, Superdex 75)
T4 sequence (looked up): T2 chain with Q18E
Described as above. As to conditions: both partners purified.

Assay [12] addresses mASH1L PHD domain (residue 2573–2624) (mouse) (UniProt Q99MY8). Kind of assay: NMR titration; 1H,15N HSQC; 100 μM PHD domain titrated with 25 to 2,000 μM peptide; 1×PBS pH 7.2, 100 μM ZnCl2, 298 K; single-site binding model.
Assay [13] shares this target. Kind of assay: ITC; MicroCal iTC200, 25°C, 1×PBS pH 7.2, 100 μM ZnCl2; 100 µM PHD or tandem Bromo-PHD in the cell, titrated with 3 mM peptide (31 injections of 1.2 μl); one set of sites model.
The target of assay [14] is T5, His-tagged Bromo-PHD tandem domain (residue 2425–2627) of mASH1L (mouse, UniProt Q99MY8 2425-2627).
T5 construct: ASH1L (mASH1L), bromodomain and PHD finger in tandem, residues 2425-2627; pNIC-Bsa4 vector; no cleavage of the His tag is described; also called tandem Bromo-PHD protein; source: E. coli BL21 (DE3), purified (HiTrap IMAC FF, Superdex 75)
The description is as above. As to conditions: both partners purified.

For assay [15], the target named is T6, mASH1L PHD domain (residue 2573–2624) (mouse, UniProt Q99MY8 2573-2624).
T6 construct: 15N- or 13C-labelled for the NMR experiments; also called ASH1L PHD finger; source: E. coli BL21 (DE3), purified (MBPTrap, TEV cleavage, Superdex 75)
The description is as above. The following applies: both partners purified.

Substitutions are numbered along the chain they refer to. Primed or numbered codes have the meaning given here. Where no end group is shown, it is not given here. [ ]: non-standard residue; d: D form. Me3″ = trimethylation (trimethyl-lysine); Me2 = dimethylation (dimethyl-lysine); Lys(Me2) = CN(C)CCCC[C@H](N)C(=O)O

Consider `CC(C)[C@H](NC(=O)CNC(=O)CNC(=O)[C@@H](NC(=O)[C@H](C)NC(=O)[C@@H]1CCCN1C(=O)[C@H](C)N)[C@@H](C)O)C(=O)N[C@@H](CCCCN(C)C)C(=O)N[C@@H](CCCCN)C(=O)N1CCC[C@H]1C(=O)N[C@@H](Cc1c[nH]cn1)C(=O)N[C@@H](CCCNC(=N)N)C(=O)N[C@@H](Cc1ccc(O)cc1)C(=O)N[C@@H](CCCNC(=N)N)C(=O)N1CCC[C@H]1C(=O)O` [H3K36me2], for which the “binding by ITC, in words” value on ASH1L PHD finger [1] is “weak binding affinity”. Further, the “HSQC chemical shift perturbation” value at ASH1L PHD finger [2] was “binds with methylated H3K4 peptides but not H3K4me0, H3K9me2, or H3K36me2 peptides”.

B1: histone H3 (1–15) peptide, trimethylated on lysine 4 (peptide, UniProt P68431 2-16, looked up)
peptide: ARTK(Me3″)QTARKSTGGKA
notes: histone H3, residues 1-15; also called H3K4me3; source: synthetic peptide (MIMOYOPES, Wuxi, China)
What is called Kd is the free concentration of one partner at which half of the binding sites on the other are occupied at equilibrium, for simple one-to-one binding. Low values mean higher affinity, high ones lower affinity. Consider B1, for which the Kd is 49 µM in [3]; above 200 µM in assay [4]; 33 µM in assay [5]; 86 µM in assay [6]; above 200 µM in assay [7]; 103 µM in assay [8]. The Kd in [9] is 33 µM; in assay [10], around 38 µM; in assay [12] it was 106 µM; in assay [13], 64 µM; in assay [14], around 48 µM. The binding result in assay [11] is on record as “binds”.

B2: histone H3 (1–15) peptide, dimethylated on lysine 4 (peptide)
peptide: ART[Lys(Me2)]QTARKSTGGKA
notes: also called H3K4me2; H3K4me2 peptide (1–15); source: synthetic peptide (MIMOYOPES, Wuxi, China)
Take B2: the Kd is 174 µM in assay [3]; above 200 µM in assay [4]; 35 µM in [5]; 71 µM in assay [6]; above 200 µM in [7]; above 200 µM in [8]. Moreover, the Kd in [10] was around 26 µM; in assay [12] it was 238 µM; in assay [13], 39 µM; in [14], around 29 µM. For the same molecule, the binding result in assay [11] is “binds”.

B3: histone H3 (2–16) peptide with dimethylation on lysine 9 (peptide, UniProt P68431 3-17, looked up)
peptide: RTKQTARK(Me2)STGGKAP
notes: histone H3, residues 2-16; also called H3K9me2; source: synthetic peptide (MIMOYOPES, Wuxi, China)
B3: the Kd in assay [15] was above 500 µM.

B4: histone H3 (1–15) peptide, unmethylated on lysine 4 (peptide, UniProt P68431 2-16, looked up)
peptide: ARTKQTARKSTGGKA
notes: histone H3, residues 1-15; also called H3K4; H3K4me0; source: synthetic peptide (MIMOYOPES, Wuxi, China)
Regarding B4, the Kd was above 300 µM in [13] and above 500 µM in assay [14].

B5: histone H3 (1–15) peptide, monomethylated on lysine 4 (peptide, UniProt P68431 2-16, looked up)
peptide: ARTK(Me)QTARKSTGGKA
notes: histone H3, residues 1-15; also called H3K4me1; H3K4me; source: synthetic peptide (MIMOYOPES, Wuxi, China)
For B5, the Kd in assay [3] was 140 µM; in assay [4], above 200 µM; in assay [5], 31 µM; in assay [6], 188 µM; in assay [7], above 200 µM; in [9], 41 µM. For the same molecule, the Kd is around 54 µM in assay [10], 181 µM in [12], 75 µM in assay [13] and around 64 µM in assay [14]. Also, the binding result in [11] is reported as “binds”.
In assay [15], APATGGVK(Me2)KPHRYRP [histone H3 (29–43) peptide with dimethylation on lysine 36] came in with a Kd above 500 µM.

For the origin of these results see paper PMC9399681, “Structural insight into ASH1L PHD finger recognizing methylated histone H3K4 and promoting cell growth in prostate cancer” (Frontiers in Oncology, 2022).
